According to patent US20240307509A1, “PLACENTAL ALKALINE PHOSPHATASE FOR STARTING EARLY TREATMENT OF CANCER PATIENTS EXHIBITING NO DETECTABLE LOSS OF BODY AND MUSCLE WEIGHT AS YET TO PREVENT OR REDUCE THE LOSS OF MUSCLE PROTEINS” (MNPHARM SBC, priority 2021, published 2024):
Where “and” joins values, the source holds several entries; their conditions need not be identical. Equal values may be shown once.

Assays:
L6 myoblasts [1] = test: Proliferation of L6 myoblasts with or without IGF-1 (MTT assay); format: cell-based; conditions: serum-free medium, 72 hours; IGF-1 50 nM, rPLAP 150 nM, PLAP 150 nM
Method: L6 myoblasts were grown in 96-well plates in 10% FBS containing DMEM up to 30% confluency. Then the medium was changed to serum-free medium, and after 2 hours, cells were treated with IGF-1 (50 nM), or rPLAP (150 nM), or PLAP (150 nM) in the absence or presence of IGF-1 for 72 hours, followed by the MTT assay (absorbance; A540) as described by others assay [Carmichael, J, De Graff, W.G., Gazdar, A.F., Minna, J.D. and Mitchell, J.B. Evaluation of tetrazolium-based semiautomated colorimetric assay: Assessment of chemosensitivity testing. Cancer Res. 47, 936-942, 1987].

L6 myoblasts [2] = test: Proliferation of L6 myoblasts in the presence of myostatin (MTT assay); format: cell-based; conditions: 96 hours
Method: In this experiment, L6 myoblasts were seeded in 10% serum containing Dulbecco's modified Eagles (DMEM) medium in 96-well plates (n=8 for each treatment). After 24 hours at 30% confluence, the medium was changed to 2% serum-containing medium (0 time) and then treated with 0.25 μg/ml or 1 ug/ml myostatin (MSTN-from the R&D Systems-catalog no. 788-GB-010) in the absence or presence of 25 nM, 100 nM, or 200 nM PLAP for 96 hours. The relative number of viable cells (A540) was determined by the MTT assay [Carmichael, J, De Graff, W.G., Gazdar, A.F., Minna, J.D. and Mitchell, J.B. Evaluation of tetrazolium-based semiautomated colorimetric assay: Assessment of chemosensitivity testing. Cancer Res. 47, 936-942, 1987]. The value measured at 0 time is subtracted from the 96-hour values.

[3] = test system: T47D human estrogen receptor positive breast carcinoma; test: Tumor growth and survival of Cyp treated mice bearing T47D breast carcinoma; format: in vivo
Method: T47D estrogen receptor positive human breast cancer cells were from American Tissue Culture Collection (10801 University Boulevard, Manassas, Virginia, 20110-2209, United States).
First generation hybrid BDF1 (C57BL female x DBA/2 male) 6 weeks old, weighing 22-23 grams, specified pathogen free (SPF) hygienic category colonies were used. The animals were kept in macrolon cage at 22-24 0 C° (45-55% humidity), with a lightning regimen of 12/12 h light/dark. The animals had free access to tap water and were fed with a sterilized standard diet (Charles River VRF1, autoclavable, Germany) ad libitum.
T47D mammary tumor pieces (maintained in mouse tail, containing about 1.5×10^6 tumor cells) were implanted subcutaneously into the intrascapular region to develop the tumors. After 15 days, when the tumor-bearing mice were first treated, the sizes of the tumors were in the 0.27-0.34 cm^3 range. PLAP and Cyp were dissolved in 0.9% sodium chloride and applied subcutaneously (PLAP) or intraperitoneally (Cyp) in 50 μl volume. In the first group (n=7), animals received no treatment. In the second group (n=7), mice were administered 120-mg/kg of Cyp on day 15 followed by eleven consecutive treatments on every second day (days 17, 19, 21, 23, 25, 27, 29, 31, 35, 37, and 39) with the same dose. In the third group (n=7), treatment with Cyp (on the same days as in group 2) was accompanied by administration of 7.5 mg per kg of PLAP on days 15, 20, 25, 30, 35, and 40. Tumor volume was measured on days 15, 18, 21, 24, 27, 31, 35, 40, and 46, and body weight was measured on day 46. Then the animals were kept without additional treatment to determine survival rates.

[4] = test system: T47D human breast cancer tumor; test: Skeletal muscle proteins in the Cyp treated human T47D tumor model; format: in vivo, mice; conditions: gastrocnemius, day 28; PLAP 7.5 mg per kg subcutaneously days 14, 17, 20, 23, 26; Cyp intraperitoneally days 15-27 every second day
Method: PLAP and Cyp were dissolved in 0.9% sodium chloride and applied subcutaneously (PLAP) or intraperitoneally (Cyp) in […] volume. […] In the fourth and fifth groups mice also received Cyp on days 15, 17, 19, 21, 23, 25, and 27. On day 28, body weights were measured first followed by determining the tumor volumes. After the mice were put to death under anesthesia, the gastrocnemius muscles were excised to determine total proteins by using a Sigma kit.

[5] = test system: PC-3 human prostate adenocarcinoma tumor; test: Subcutaneously administered PLAP in the cachectic PC-3 mouse tumor model; format: in vivo, mice; conditions: day 28
Excerpt: PC-3 human prostate cancer cell-derived aggressive tumors are cachectic depending on the mouse strain used for tumor development. In the following experiment, a cachectic mouse model of human prostate tumor was used.
PC-3 human prostate adenocarcinoma tissue pieces (0.1 cm^3 volume) were implanted subcutaneously into the intrascapular region of 6 weeks old female mice [homozygous line of C.B .-171cr scid/scid] to develop the tumors. The mice were kept at specified pathogen free (SPF) hygienic levels. In the first group of mice (7 mice), no tumors were developed (tumor free control). In the second group of mice (7 mice), tumors were developed but remained untreated. In the third group of mice (7 mice), on days 8, 11, 14, 17, 21 and 25 after transplantation of PC-3 tumors, mice were administered 4 mg/kg of PLAP subcutaneously. The weight and total protein content of m. gastrocnemius (using a protein determination kit from Sigma), tumor weight, lean body weight (total weight minus tumor weight), and the weight of abdominal fat tissue were determined on day 28 (after tumor transplantation).

[6] = Spectrophotometric assay of PLAP enzyme activity; format: biochemical; conditions: 10 mM 4-nitrophenylphosphate, 22° C., pH 9.8; 1 U = 1 umole substrate hydrolyzed/min
Method: PLAP as determined by sodium dodecyl sulfate-polyacrylamide gel electrophoresis (SDS-PAGE). The enzyme activity of PLAP was assayed using a spectroscopic method to monitor the hydrolysis of 4-nitrophenylphosphate (as an increase in absorbance at 410 nm) at room temperature (22° C.) as described in [Chang, G.-G., Shiao, M.-S., Lec, K.-R. and Wu, J.-J., Modification of human placental alkaline phosphatase by periodate-oxidized 1,N6-ethenoadenosine monophosphate. Biochem. J., 272, 683-690, 1990]. Activity analysis of 5-10-μg purified enzyme was performed in 1 mI. incubation volume containing 50 mM Na2CO3/NaHCO3, 10 mM MgCl2, 10 mM 4-nitrophenylphosphate at pII 9.8. The extinction coefficient of 4-nitrophenol was taken as 1.62×10^4 M^−1 cm^−1. An enzyme activity of I U (unit) is defined as 1 umole substrate hydrolyzed/min at 22° C. at pH 9.8. The pure PLAP was further identified by sequence analysis performed by the Mayo Clinic Protein Core Facility (Rochester, MN, US). The specific activity of purified PLAP was 685 Units per mg protein.

[7] = ATP as substrate of alkaline phosphatases (unpublished data); format: biochemical; conditions: compared to IALP or TNAP
Excerpt: This invention can also use an alkaline phosphatase (AP) which is a hybrid derivative of two APs. For example, in such a hybrid one critical segment may originate from PLAP accounting for the heat stability, and another segment may originate from a different AP accounting for a higher catalytic phosphatase activity or another useful property. As an example, envisioned in the disclosure, such hybrid may contain up to roughly 50% of the sequence of PLAP providing stability, and up to roughly 50% of the sequence of another human AP providing the catalytic alkaline phosphatase activity. The rationale for using such hybrid is that of the APs, PLAP has by far the greatest stability in the circulation, while other APs may have greater catalytic activities towards some specific substrates.

[8] = purified PLAP, literature (Clubb et al. 1965); cited from earlier work
[9] = Cyp 120 mg/kg intraperitoneally, PLAP 7.5 mg/kg subcutaneously
[10] = numbers in parentheses, n=7 per group
[11] = m. gastrocnemius, PLAP 4 mg/kg subcutaneously on days 8, 11, 14, 17, 21, 25

## IGF-1: insulin like growth factor-1 [reference compound]
L6 myoblasts [1]
  L6 myoblast proliferation (A540) (minus 0-time value): 0.280 ± 0.030 A540

## Myostatin: myostatin (MSTN) from R&D Systems, catalog no. 788-GB-010 [reference compound]
L6 myoblasts [2]; Myostatin 0.25 μg/ml, no PLAP, 2% serum
  L6 myoblast proliferation minus 0-time value (A540): 0.214 ± 0.032 A540
L6 myoblasts [2]; Myostatin 1.0 μg/ml, no PLAP, 2% serum
  L6 myoblast proliferation minus 0-time value (A540): 0.175 ± 0.030 A540

## O.O=P1(N(CCCl)CCCl)NCCCO1 (centres unmarked) [Cyp, 2-[Bis (2-chloroethyl)amino] tetrahydro-2H-1,3,2-oxazaphosphorine 2-oxide monohydrate]
[3]; Cyp 120 mg/kg intraperitoneally every second day from day 15, PLAP 7.5 mg/kg subcutaneously every 5 days
  Tumor volume Day 18: 0.33 ± 0.11 cm^3
[3]; [9]
  Tumor volume Day 21: 0.56 ± 0.10 cm^3
  Tumor volume Day 24: 0.72 ± 0.20 cm^3
  Tumor volume Day 27: 0.91 ± 0.22 cm^3
  Tumor volume Day 31: 1.06 ± 0.17 cm^3
  Tumor volume Day 35: 1.22 ± 0.32 cm^3
  Tumor volume Day 40: 1.68 ± 0.29 cm^3
  Tumor volume Day 46: 1.82 ± 0.24 cm^3
[3]; T47D tumor bearing animals, n=7, monohydrate
  Survival Mean: 49 days and 49.3 days
[3]; body weight measured on day 46
  body weight less compared to the untreated group: 1.4%
[3]; day of first treatment, Cyp 120 mg/kg intraperitoneally, PLAP 7.5 mg/kg subcutaneously
  Tumor volume Day 15: 0.30 ± 0.11 cm^3
[3]; [10]
  number of mice alive Day 35: 7
  number of mice alive Day 40: 7
  number of mice alive Day 46: 5
[3]; relative to untreated (None = 100)
  Survival %: 129%
[4]
  Total Muscle Protein: 11.31 ± 0.43 mg per 100 mg of muscle weight

B1: PLAP: highly purified native placental alkaline phosphatase derived from human placenta via conventional purification methods (protein, UniProt P05187 23-506, looked up)
Alkaline phosphatase, …: IIPVEEENPDFWNREAAEALGAAKKLQPAQTAAKNLIIFLGDGMGVSTVTAARILKGQKKDKLGPEIPLAMDRFPYVALSKTYNVDKHVPDSGATATAYLCGVKGNFQTIGLSAAARFNQCNTTRGNEVISVMNRAKKAGKSVGVVTTTRVQHASPAGTYAHTVNRNWYSDADVPASARQEGCQDIATQLISNMDIDVILGGGRKYMFRMGTPDPEYPDDYSQGGTRLDGKNLVQEWLAKRQGARYVWNRTELMQASLDPSVTHLMGLFEPGDMKYEIHRDSTLDPSLMEMTEAALRLLSRNPRGFFLFVEGGRIDHGHHESRAYRALTETIMFDDAIERAGQLTSEEDTLSLVTADHSHVFSFGGYPLRGSSIFGLAPGKARDRKAYTVLLYGNGPGYVLKDGARPDVTESESGSPEYRQQSAVPLDEETHAGEDVAVFARGPQAHLVHGVQEQTFIAHVMAFAACLEPYTACDLAPPAGTTD
[5]; PLAP 4 mg/kg subcutaneously
  inhibition of tumor growth: 32%
  Tumor Weight: 2.9 ± 0.4 g
[5]; PLAP treated tumor (41% in untreated)
  loss of lean body weight: 18%
[5]; PLAP treated tumor (46% in untreated)
  loss of abdominal fat tissue: 12%
[5]; [11]
  Muscle Mass: 93 ± 9 mg
  Muscle Protein: 13.3 ± 1.3 mg/100 mg of muscle weight
[5]; total weight minus tumor weight, PLAP 4 mg/kg subcutaneously
  Lean Body Weight: 25.9 ± 2.8 g
[5]; weight, PLAP 4 mg/kg subcutaneously
  Abdominal Fat Tissue: 0.66 ± 0.07 g
[4]
  Total Muscle Protein: 13.20 ± 0.38 mg per 100 mg of muscle weight
L6 myoblasts [1]
  L6 myoblast proliferation (A540) (minus 0-time value): 0.267 ± 0.025 A540
L6 myoblasts [2]; PLAP 25 nM, Myostatin 0.25 μg/ml
  L6 myoblast proliferation minus 0-time value (A540): 0.325 ± 0.038 A540
L6 myoblasts [2]; PLAP 25 nM, Myostatin 1.0 μg/ml
  L6 myoblast proliferation minus 0-time value (A540): 0.300 ± 0.023 A540
L6 myoblasts [2]; PLAP 25 nM, No Myostatin
  L6 myoblast proliferation minus 0-time value (A540): 0.410 ± 0.025 A540
L6 myoblasts [2]; PLAP 100 nM, Myostatin 0.25 μg/ml
  L6 myoblast proliferation minus 0-time value (A540): 0.430 ± 0.024 A540
L6 myoblasts [2]; PLAP 100 nM, Myostatin 1.0 μg/ml
  L6 myoblast proliferation minus 0-time value (A540): 0.402 ± 0.027 A540
L6 myoblasts [2]; PLAP 100 nM, No Myostatin
  L6 myoblast proliferation minus 0-time value (A540): 0.541 ± 0.022 A540
L6 myoblasts [2]; PLAP 200 nM, Myostatin 0.25 μg/ml
  L6 myoblast proliferation minus 0-time value (A540): 0.542 ± 0.069 A540
L6 myoblasts [2]; PLAP 200 nM, Myostatin 1.0 μg/ml
  L6 myoblast proliferation minus 0-time value (A540): 0.500 ± 0.033 A540
L6 myoblasts [2]; PLAP 200 nM, No Myostatin
  L6 myoblast proliferation minus 0-time value (A540): 0.707 ± 0.032 A540
[6]
  specific activity: 685 Units per mg protein
[7]
  ATP as substrate: weak substrate
[8]
  half-life time in human circulation: about 7 days
